Values of other authors, collected in patent publication US12485093B2, “Composition for use as an antiviral in the form of nasal drops and in nebulisers” (DERMOPARTNERS, S.L., priority 2021, dated 2025).
Read-outs that look alike come from different tables or passages of the source.

What was measured:
[1] = tested on: viral entry into host cells; settings: by interacting with viral and/or cell surface receptors
SARS-CoV-2 [2] = settings: adenocarcinoma human alveolar basal epithelial cells (A549), 1 mg/ml
SARS-CoV-2 [3] = settings: African green monkey kidney epithelial cells, 1 mg/ml

B1: lactoferrin (protein, UniProt P02788 20-710, looked up)
Lactotransferrin: GRRRSVQWCAVSQPEATKCFQWQRNMRKVRGPPVSCIKRDSPIQCIQAIAENRADAVTLDGGFIYEAGLAPYKLRPVAAEVYGTERQPRTHYYAVAVVKKGGSFQLNELQGLKSCHTGLRRTAGWNVPIGTLRPFLNWTGPPEPIEAAVARFFSASCVPGADKGQFPNLCRLCAGTGENKCAFSSQEPYFSYSGAFKCLRDGAGDVAFIRESTVFEDLSDEAERDEYELLCPDNTRKPVDKFKDCHLARVPSHAVVARSVNGKEDAIWNLLRQAQEKFGKDKSPKFQLFGSPSGQKDLLFKDSAIGFSRVPPRIDSGLYLGSGYFTAIQNLRKSEEEVAARRARVVWCAVGEQELRKCNQWSGLSEGSVTCSSASTTEDCIALVLKGEADAMSLDGGYVYTAGKCGLVPVLAENYKSQQSSDPDPNCVDRPVEGYLAVAVVRRSDTSLTWNSVKGKKSCHTAVDRTAGWNIPMGLLFNQTGSCKFDEYFSQSCAPGSDPRSNLCALCIGDEQGENKCVPNSNERYYGYTGAFRCLAENAGDVAFVKDVTVLQNTDGNNNEAWAKDLKLADFALLCLDGKRKPVTEARSCHLAMAPNHAVVSRMDKVERLKQVLLHQQAKFGRNGSDCPDKFCLFQSETKNLLFNDNTECLARLHGKTTYEKYLGPQYVAGITNLKKCSTSPLLEACEFLRK
notes: naturally occurring, non-toxic glycoprotein, multifunctional protein of the immune system
block of viral entry into host cells [1]: managed to block viral entry into host cells | effect on efficacy of remdesivir and hydroxychloroquine (SARS-CoV-2 infection): potentiated the efficacy of both remdesivir and hydroxychloroquine | IC50 (SARS-CoV-2 infection; read-out: IC50 of inhibition of SARS-CoV-2 infection): 308 nM | inhibition of SARS-CoV-2 (SARS-CoV-2 [2]): capable of inhibiting SARS-CoV-2 | inhibition of SARS-CoV-2 (SARS-CoV-2 [3]): capable of inhibiting SARS-CoV-2
